For data set [1], the system named is TATA box-selected zinc finger protein (Zif268 variant, boxed clone FIG. 3A) (artificial). As to the kind of experiment: EMSA. The conditions noted are these: same buffer, 5 mM MgCl2, 20 uM ZnSO4, pH 7.9. Background: Mobility shift assays separate free from complexed probe on a gel.
Data set [2] relates to NRE-selected zinc finger protein (Zif268 variant, boxed clone FIG. 3C) (artificial). As to the kind of experiment: EMSA. The conditions noted are these: same buffer, 5 mM MgCl2, 20 uM ZnSO4, pH 7.9.
The subject of data set [3] is p53 site-selected zinc finger protein (Zif268 variant, boxed clone FIG. 3B) (artificial). Put plainly: EMSA. The conditions noted are these: same buffer, 5 mM MgCl2, 20 uM ZnSO4, pH 7.9.
In data set [4] the test system is TATA box-selected zinc finger protein (Zif268 variant, boxed clone FIG. 3A) (artificial). Put plainly: competition. The conditions noted are these: nonspecific over specific dissociation constant ratio; calf thymus competitor in EMSA.
The subject of data set [5] is NRE-selected zinc finger protein (Zif268 variant, boxed clone FIG. 3C) (artificial). As to the kind of experiment: competition. The following applies: nonspecific over specific dissociation constant ratio; calf thymus competitor in EMSA.
Data set [6] deals with Zif268 zinc fingers 1-3 (wild type) (UniProt P08046). Put plainly: competition. The conditions noted are these: nonspecific over specific dissociation constant ratio; calf thymus competitor in EMSA.
Data set [7] has as its system p53 site-selected zinc finger protein (Zif268 variant, boxed clone FIG. 3B) (artificial). Put plainly: competition. The following applies: nonspecific over specific dissociation constant ratio; calf thymus competitor in EMSA.

As to “AGGGGGGCTATAAAAGGGGGT (double strand) [TATA box site]”, the Kd (in general, the constant that tells how readily two partners part at equilibrium) in data set [1] amounted to 0.12 nM. Turning to “GCCGTCAAGGGTTCAGTGGGG (double strand) [NRE site]”, in data set [2], the dissociation constant Kd was 0.038 nM. For “GCTGTTGGGACATGTTCGTGA (double strand) [p53 binding site]”, the dissociation constant Kd in data set [3] was 0.11 nM. Regarding calf thymus DNA, the results for the DNA-binding specificity ratio (nonspecific Kd / specific Kd) (fold (Kdns/Kd)) in data set [4], in data set [5] and in data set [7] were 25000, 36000 and 54000, respectively. Besides, in data set [6], the binding signal (fold (Kdns/Kd)) is 31000.

The values above are taken from patent US6410248.
